Laboratory results as given in patent US12678457B2, “Blood-brain barrier-penetrating nanotheranostics for acute and chronic neurodegenerative diseases and the like” (THE GOVERNING COUNCIL OF THE UNIVERSITY OF TORONTO, priority 2020, dated 2026).

Assay: Pharmacokinetic study of GDNF-TPN (human GDNF ELISA)
Assay type: in vivo, healthy CD-1 mice
Details: after i.v. injection
Protocol: Healthy CD-1 mice were randomly allocated into three treatment groups and received a single i. v. injection of GDNF-TPN, Free GDNF or saline at a matched dose of 15 mg GDNF/kg. At 0.5, 1, 2, 4, 6 and 24 hours after injection, whole blood was collected in heparinized tubes from ketamine anesthetized mice by cardiac puncture. Following perfusion with ice-cold saline via the left ventricle, the brains and organs were harvested, rinsed in PBS, weighted, snap-frozen and stored at −80° C. for further analysis. The mouse tissues were homogenized with RIPA buffer containing protease inhibitors and the GDNF was assayed using Human GDNF Elisa kit (Abcam, CA) under manufacture's protocol. […] Free GDNF was quickly eliminated from the blood within 2 hours after injection.

B1: glial cell line-derived neurotrophic factor (protein, UniProt P39905 78-211, looked up)
Glial cell line-derived …: SPDKQMAVLPRRERNRQAAAANPENSRGKGRRGQRGKNRGCVLTAIHLNVTDLGLGYETKEELIFRYCSGSCDAAETTYDKILKNLSRNRRLVSDKVGQACCRPIAFDDDLSFLDDNLVYHILRKHSAKRCGCI
notes: Human GDNF, free protein solution used as comparator
For B1, the “Time to elimination from the blood” value was ≤ 2 h.
